The subject of data set [1] is WT pups subjected to oxygen-induced retinopathy (OIR). Briefly: OIR mouse model: morphometric analysis of vaso-obliteration and neovascularization on lectin-labeled retinal flat mounts. Type of data set: in vivo. From the text: OIR mouse model: Wild type (WT) or heterozygous A1 knock out (A1^+/−) mice and their wild type (WT) littermates were subjected to oxygen induced retinopathy (OIR). Because deletion of both copies of A1 is lethal due to hyperammonemia, mice lacking 1 copy of A1 were used which is sufficient to dampen its activity (Zhang, et al., Am J Pathol, 175:891-902 (2009); Elms, et al., Diabetologia, 56:654-662 (2013); Patel, et al., Front Immunol, 4:173 (2014)). OIR was induced in newborn mice according to the protocol of Smith, et al. with some adjustments (Connor, et al., Nature Protocols, 4:1565-1573 (2009)). On P7 (postnatal day 7), mice were placed along with their dams in a hyperoxia (70% oxygen) chamber for up to 5 days, after which they were transferred back to room air on P12. The 70% oxygen concentration was used for experiments involving A1^+/− mice based on preliminary experiments showing intolerance of the A1^+/− mice to 75% oxygen treatment. Mice were sacrificed at various times and retinas were collected for analyses (FIG. 1A-1C). In all experiments, mice were compared to their littermate controls. Then data were pooled together to minimize variability between litters due to differences in litter size and weight gain (Kim, et al., Eye and Brain, 8:67-79 (2016)). These experiments were performed in accordance with the ARVO Statement for the Use of Animals in Ophthalmic and Vision Research, and were approved by the institutional animal care and use committee.
Analysis of vaso-obliteration and neovascularization: Eyeballs were fixed in 4% paraformaldehyde (PFA) overnight. Retina flat-mounts were dissected and then blocked and permeabilized in phosphate-buffered saline (PBS) containing 10% goat serum and 1% Triton X-100 (Sigma-Aldrich) for 30 minutes. Retinas were then immunolabeled with Alex594-labeled Griffonia simplicifolia isolectin B4 (1:200; Invitrogen, Carlsbad, Calif.) overnight at 4° C. Retinas were flat-mounted in mounting medium (Vectashield; Vector Laboratories, Burlingame, Calif.) and images were captured using fluorescence microscopy (Axioplan 2, Carl Zeiss Vision Inc.). Areas of central capillary dropout (vaso-obliteration, VO) and vitreoretinal neovascular tufts (neovascularization, NV) were quantified in a masked fashion using ImageJ software (NIH, Bethesda, Md.) (Connor, et al., Nature Protocols, 4:1565-1573 (2009); Patel, et al., Am J Pathol, 184:3040-3051 (2014)). High-magnification images were acquired to perform vessel sprouting analysis. Vessel sprouts were counted as previously described Patel, et al., Am J Pathol, 184:3040-3051 (2014)).
PBS was used as vehicle control. Pups were anesthetized before treatment by intraperitoneal (i.p.) injection of ketamine/xylazine mixture. Intravitreal injections were performed using a 36-gauge NanoFil needle mounted to a 10-μL Hamilton syringe (World Precision Instruments). Two treatment strategies were employed. […] The P9 time point was selected based on the fact that vaso-obliteration occurs within the first 48 hours of hyperoxia treatment (Connor, et al., Nature Protocols, 4:1565-1573 (2009); Lange, et al., Graefe's archive for clinical and experimental ophthalmology, 247:1205-1211 (2009); Gu, et al., Investigative ophthalmology & visual science, 43:496-502 (2002)).

For data set [2], the system named is C57BL/6J mice subjected to middle cerebral artery occlusion (MCAO). Briefly: MCAO stroke model: infarct size (TTC) and Bederson score. The data set is classed as in vivo, mouse. As to conditions: 60 minutes MCAO, 24 hours. How it is done: MCAO model: C57BL/6J mice (12-16 week-old male, 25-30 g) were subjected to middle cerebral artery occlusion (MCAO) using the intraluminal filament technique (Docol 602145) for 60-minutes followed by reperfusion as described in Eldahshan, et al., American Journal of Physiology Heart and Circulatory Physiology, 316:H1192-h201 (2019). […] A heating pad was used to maintain body temperature at 37° C. […] Sham surgery involved all the regular surgery steps except the filament insertion. Mice were deeply anesthetized at 24 hours and sacrificed by trans-cardial perfusion with PBS then brains were collected and sectioned for triphenyl tetrazolium chloride (TTC) staining or homogenized in RIPA lysis buffer for western blotting. […]
The stroke experiment involved behavioral scoring and manual quantification of the infarct size, and was conducted in a blinded fashion following the STAIR criteria. […]
Infarct size analysis: Brain infarct size was determined based on TTC staining of brain sections as described in Eldahshan, et al., American Journal of Physiology Heart and Circulatory Physiology, 316:H1192-h201 (2019). Images of TTC-stained sections were analyzed in a blinded fashion using ImageJ software [National Institutes of Health (NIH)], and the infarct size was calculated with edema correction using the following formula: 100×[nonstroked−(stroked−infarct)]/nonstroked. […]

Data set [3] can be described thus: Pharmacokinetic profile of PEG-A1 in mouse vitreous by arginase activity after intravitreal administration. The data set is classed as in vivo. As to conditions: adult mice, intravitreal 6.8 ng in 1 μL. The source says:
Based on the results of the above studies showing detrimental effects of A1 hemizygous deletion on vascular repair in A1^+/− mice and the findings that increases in A1 expression accompany the beneficial effects of A2 deletion on the vascular injury, it was hypothesized that treatment with A1 could be useful in limiting OIR-induced retinal injury. To test this, a PEG-A1 was used. […] Adult mice were used in this experiment to get higher vitreous yield for ease of processing.

[4] abbreviates: intravitreal 6.8 ng in 0.5 μL at P12, analysis at P17.

B1: PEG-A1: recombinant human arginase (rhArg) covalently attached to methoxy polyethylene glycol (mPEG-SPA; MW 5,000) via succinamide propionic acid (SPA) linker (protein, UniProt P05089 1-322, looked up)
Arginase-1: MSAKSRTIGIIGAPFSKGQPRGGVEEGPTVLRKAGLLEKLKEQECDVKDYGDLPFADIPNDSPFQIVKNPRSVGKASEQLAGKVAEVKKNGRISLVLGGDHSLAIGSISGHARVHPDLGVIWVDAHTDINTPLTTTSGNLHGQPVSFLLKELKGKIPDVPGFSWVTPCISAKDIVYIGLRDVDPGEHYILKTLGIKYFSMTEVDRLGIGKVMEETLSYLLGRKKRPIHLSFDVDGLDPSFTPATGTPVVGGLTYREGLYITEEIYKTGLLSGLDIMEVNPSLGKTPEEVTRTVNTAVAITLACFGLAREGNHKPIDYLNPPK
modifications: mPEG-SPA 5 kDa conjugate
notes: recombinant human arginase (rhArg) covalently attached to methoxy polyethylene glycol (mPEG-SPA; MW 5,000) via succinamide propionic acid (SPA) linker
With B1, the “hyperoxia-induced vaso-obliteration (capillary dropout area)” value in data set [1] (intravitreal 6.8 ng in 0.5 μL at P7, hyperoxia, P9) is reported as “does not affect”. Further, in data set [1] (setting [4]), the avascular area entry is reported as “avascular area was reduced”, the “endothelial tip cells (vessel sprouts) per field of view” value was “two-fold increase” and the “neovascular tufts (pathological neovascularization)” value is on record as “reduced neovascular tufts”. Further, in data set [1] (intravitreal PEG-A1, vs vehicle), the “lectin-positive vitreal macrophages after OIR” value is on record as “increased”. In data set [2], the Bederson score entry is on record as “trend towards improved Bederson score that did not reach statistical significance”. Besides, the “infarct size (TTC, percent of contralesional hemisphere)” value in data set [2] (vehicle 41%) turned out to be 34%. Also, the vitreous arginase activity result in data set [3] (day 3 post injection) was “three-fold”. In data set [3] (day 6), the vitreous arginase activity entry is “returned to baseline”. Moreover, the “vitreous arginase activity as compared to vehicle treatment” value in data set [3] (immediately after administration) is “about six-fold increase”.

For the origin of these results see patent publication US20210340516A1, “COMPOSITIONS CONTAINING ARGINASE 1 FOR THE TREATMENT OF NEUROVASCULAR AND RETINAL VASCULAR DISORDERS” (Augusta University Research Institute, Inc., priority 2020, published 2021).
